Assay [1] has as its target T1, human FolR1 expressed on cells (HeLa, SKOV3, HT-29, transfected HEK cells) (human, UniProt P15328 25-234). Nature of the assay: cell-based or functional assay.
In assay [2] the target is T2, recombinant biotinylated monomeric Fc fusion of human Folate Receptor 1 (huFolR1 ECD-AcTev-Fcknob-Avi tag … (human, UniProt P0DOX5 223-449 = IgG part, biotin on the C-terminal Avi tag)).
T2 construct: also called huFolR1-Fc; human FolR1-Fc
Nature of the assay: SPR Biacore, avidity (bivalent, apparent KD), antigen-Fc on SA chip. The method, then: (§1) All SPR experiments were performed on a Biacore T200 at 25° C. with HBS-EP as running buffer (0.01 M HEPES pH 7.4, 0.15 M NaCl, 3 mM EDTA, 0.005% Surfactant P20, Biacore, GE Healthcare). The molecules used for affinity and avidity determination are described in Table 45.
(§2) Recombinant biotinylated monomeric Fc fusions of human, cynomolgus and murine Folate Receptor 1 (FolR1-Fc) were directly coupled on a SA chip using the standard coupling instruction (Biacore, GE Healthcare). The immobilization level was about 200-300 RU. […] The dissociation was monitored for 240 or 600 seconds. The chip surface was regenerated after every cycle using a double injection of 30 sec 10 mM Glycine-HCl pH 1.5. Bulk refractive index differences were corrected for by subtracting the response obtained on reference flow cell immobilized with recombinant biotinylated murine IL2R Fc fusion (unrelated Fc fused receptor). The binding curves resulting from the bivalent binding of the T cell bispecifics were approximated to a 1:1 Langmuir binding (even though it is a 1:2 binding) and fitted with that model to get an apparent KD representing the avidity of the bivalent binding. The apparent avidity constants for the interactions were derived from the rate constants of the fitting using the Bia Evaluation software (GE Healthcare).
Background: In SPR one partner is held on a chip, and binding of the other changes the refractive index at the surface.

Assay [3] addresses T3, recombinant biotinylated monomeric Fc fusion of cynomolgus Folate Receptor 1 (cy FolR1 ECD-AcTev-Fcknob-Avi … (cynomolgus, UniProt P0DOX5 223-449 = IgG part, biotin on the C-terminal Avi tag)).
T3 construct: also called cyFolR1-Fc; cyno FolR1
Described as above. As to the method:
as §1, §2

For assay [4], the target named is T2, recombinant biotinylated monomeric Fc …. Kind of assay: SPR Biacore, affinity (monovalent), antibody captured via anti-Fab. The method, then:
as §1
(§3) For affinity measurement, direct coupling of around 12000 resonance units (RU) of the anti-human Fab specific antibody (Fab capture kit, GE Healthcare) was performed on a CM5 chip at pH 5.0 using the standard amine coupling kit (GE Healthcare). Anti-FolR1 T cell bispecifics were captured at 20 nM with a flow rate of 10 μl/min for 40 sec, the reference flow cell was left without capture. […] The dissociation phase was monitored for 300 s and triggered by switching from the sample solution to HBS-EP. The chip surface was regenerated after every cycle using a double injection of 60 sec 10 mM Glycine-HCl pH 2.1. Bulk refractive index differences were corrected for by subtracting the response obtained on the reference flow cell 1. The affinity constants for the interactions were derived from the rate constants by fitting to a 1:1 Langmuir binding using the Bia Evaluation software (GE Healthcare). For low affinity kinetics with association and dissociation phases too fast to be fitted by the 1:1 Langmuir binding model, the steady state analysis model was applied using the Bia Evaluation software (GE Healthcare). The steady state analysis gives the KD of the binding reaction at equilibrium.

Assay [5] has as its target T3, recombinant biotinylated monomeric Fc …. The assay is described as above. The method, then: as §1, §3
The target of assay [6] is T2, recombinant biotinylated monomeric Fc …. Nature of the assay: SPR Biacore, affinity (monovalent).
Assay [7] addresses T4, recombinant biotinylated monomeric Fc fusion of human Folate Receptor 2 (hu FolR2 ECD-AcTev-Fcknob-Avi tag … (human, UniProt P0DOX5 223-449 = IgG part, biotin on the C-terminal Avi tag)).
T4 construct: also called FolR2-Fc
Kind of assay: SPR Biacore, single injection on immobilized antigen-Fc. The method, then: as §1
(§4) First the anti-FolR1 TCBs were analyzed by single injections (Table 46) to characterize their crossreactivity (to human, murine and cyno FolR1) and specificity (to human FolR1, human FolR2, human FolR3). Recombinant biotinylated monomeric Fc fusions of human, cynomolgus and murine Folate Receptor 1 (FolR1-Fc) or human Folate Receptor 2 and 3 (FolR2-Fc, FolR3-Fc) were directly coupled on a SA chip using the standard coupling instruction (Biacore, Freiburg/Germany). The immobilization level was about 300-400 RU. The TCBs were injected for 60 seconds at a concentration of 500 nM.

Assay [8] addresses T5, recombinant biotinylated monomeric Fc fusion of murine Folate Receptor 1 (mu FolR1 ECD-AcTev-Fcknob-Avitag … (murine, UniProt P0DOX5 223-449 = IgG part, biotin on the C-terminal Avi tag)).
T5 construct: also called muFolR1-Fc; murine FolR1
Described as above. The method, then:
as §1, §4

The target of assay [9] is T6, recombinant biotinylated monomeric Fc fusion of human Folate Receptor 3 (hu FolR3 ECD-AcTev-Fcknob-Avi tag … (human, UniProt P0DOX5 223-449 = IgG part, biotin on the C-terminal Avi tag)).
T6 construct: also called FolR3-Fc
Described as above. As to the method: as §1, §4

In assay [10] the target is T1, human FolR1 expressed on cells (HeLa, …). Kind of assay: cell-based or functional assay. The source holds these as a separate data set.
Assay [11] concerns the target T2, recombinant biotinylated monomeric Fc …. Nature of the assay: SPR Biacore, avidity (bivalent).
The target in assay [12] is T1, human FolR1 expressed on cells (HeLa, …). Kind of assay: cell-based or functional assay. The source holds these as a separate data set.
The target in assay [13] is T5, recombinant biotinylated monomeric Fc …. Kind of assay: SPR Biacore, single injection 500 nM on immobilized antigen-Fc. As to the method: Binding of FolR1 binders as IgG or in the T-cell bispecific format to different recombinant folate receptors (human FolR1, 2 and 3, murine FolR1 and cynomolgus FolR1; all as Fc fusions) was assessed by surface plasmon resonance (SPR). All SPR experiments were performed on a Biacore T200 at 25° C. with HBS-EP as running buffer (0.01 M HEPES pH 7.4, 0.15 M NaCl, 3 mM EDTA, 0.005% Surfactant P20, Biacore, Freiburg/Germany).
First the anti-FolR1 IgGs were analyzed by single injections (Table 1) to characterize their crossreactivity (to human, murine and cyno FolR1) and specificity (to human FolR1, human FolR2, human FolR3). Recombinant biotinylated monomeric Fc fusions of human, cynomolgus and murine Folate Receptor 1 (FolR1-Fc) or human Folate Receptor 2 and 3 (FolR2-Fc, FolR3-Fc) were directly coupled on a SA chip using the standard coupling instruction (Biacore, Freiburg/Germany). The immobilization level was about 300-400 RU. The IgGs were injected for 60 seconds at a concentration of 500 nM.

The target in assay [14] is T4, recombinant biotinylated monomeric Fc …. Kind of assay: SPR Biacore, single injection on immobilized antigen-Fc. Summed up:
(§5)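 Biacore T200 at 25 °C in HBS-EP (HEPES pH 7.4). Biotinylated FolR-Fc fusions captured on SA chip at about 300-400 RU. IgGs injected once at 500 nM for 60 s to assess cross-reactivity and specificity.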
The source holds these as a separate data set.

In assay [15] the target is T6, recombinant biotinylated monomeric Fc …. The assay is described as above. An outline of the steps: as §5
The source holds these as a separate data set.

Changes are numbered by the printed parent chain. Names and notes keep the numbering of the source. Read-outs that look alike come from different tables or passages of the source.

T1 sequence (P15328 25-234): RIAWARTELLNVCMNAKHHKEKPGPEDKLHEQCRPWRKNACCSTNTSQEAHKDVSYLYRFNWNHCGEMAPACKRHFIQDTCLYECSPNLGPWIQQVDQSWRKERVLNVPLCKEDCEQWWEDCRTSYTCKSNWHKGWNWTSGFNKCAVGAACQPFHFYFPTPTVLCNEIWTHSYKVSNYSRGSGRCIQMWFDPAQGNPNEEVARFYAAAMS

B1: 9D11 TCB S100aA (CD3 deamidation variant) (bispecific antibody, human IgG1, kappa, L234A L235A)
heavy 1: not shown
heavy 2: QVQLVQSGAEVKKPGASVKVSCKASGYTFTSYYMHWVRQAPGQGLEWMGIINPSGGPTSYAQKFQGRVTMTRDTSTSTVYMELSSLRSEDTAVYYCARGDFAWLDYWGQGTLVTVSSASTKGPSVFPLAPSSKSTSGGTAALGCLVKDYFPEPVTVSWNSGALTSGVHTFPAVLQSSGLYSLSSVVTVPSSSLGTQTYICNVNHKPSNTKVDKKVEPKSCDKTHTCPPCPAPEAAGGPSVFLFPPKPKDTLMISRTPEVTCVVVDVSHEDPEVKFNWYVDGVEVHNAKTKPREEQYNSTYRVVSVLTVLHQDWLNGKEYKCKVSNKALGAPIEKTISKAKGQPREPQVCTLPPSRDELTKNQVSLSCAVKGFYPSDIAVEWESNGQPENNYKTTPPVLDSDGSFFLVSKLTVDKSRWQQGNVFSCSVMHEALHNHYTQKSLSLSPGK
light 1: not shown
light 2: QAVVTQEPSLTVSPGGTVTLTCGSSTGAVTTSNYANWVQEKPGQAFRGLIGGTNKRAPGTPARFSGSLLGGKAALTLSGAQPEDEAEYYCALWYSNLWVFGGGTKLTVLSSASTKGPSVFPLAPSSKSTSGGTAALGCLVKDYFPEPVTVSWNSGALTSGVHTFPAVLQSSGLYSLSSVVTVPSSSLGTQTYICNVNHKPSNTKVDKKVEPKSC
B1: the “EC50 of T-cell killing of SKov-3, 24 h” value in [1] came out at 0.00194 nM.

B2: 16D5 G49S/S93A TCB (2+1 inverted, common light chain) (bispecific antibody, V domains shown)
VH 1: not shown
VL: QTVVTQEPSLTVSPGGTVTLTCGSSTGAVTTSNYANWVQQKPGQAPRGLIGGTNKRAPGTPARFSGSLLGGKAALTLSGVQPEDEAEYYCALWYANLWVFGGGTKLTVL
VH 2: not shown
As to B2, in assay [2], the Kd came to 10 nM, the koff is 0.00209 s⁻¹ and the kon was determined as 149000 M⁻¹ s⁻¹. For the same molecule, in [3], the Kd came to 20 nM, the off-rate constant (koff) turned out to be 0.00784 s⁻¹ and the kon was found to be 454000 M⁻¹ s⁻¹. Besides, in assay [4], the Kd worked out at 830 nM, the koff came to 0.00837 s⁻¹ and the association rate constant (kon) turned out to be 10100 M⁻¹ s⁻¹. In assay [5], the Kd is 420 nM, the koff stood at 0.0086 s⁻¹ and the kon turned out to be 20500 M⁻¹ s⁻¹. The “fold lower affinity than 16D5 WT (57 nM)” value in [6] was determined as 14.5 fold. In addition, the binding result in assay [7] was “no binding (tested: 500 nM)”. Besides, in assay [8], the binding result is given as “no binding (tested: 500 nM)”. Moreover, the binding result in assay [9] is “no binding (tested: 500 nM)”. In addition, in assay [10], the “EC50 of T-cell killing of Hela, 24 h” value is 0.0023 nM and the “EC50 of T-cell killing of SKov-3, 24 h” value worked out at 0.43 nM. Besides, the “fold lower avidity than 16D5 WT (3 nM)” value in assay [11] was found to be 3 fold. Further, in [12], the “EC50 of T-cell killing of HT-29, 48 h” value stood at 0.0993 nM; the “EC50 of T-cell killing of Hela, 48 h” value is 0.0009 nM; the “EC50 of T-cell killing of SKov-3, 48 h” value worked out at 0.0959 nM.

B3: 20H7 IgG (antibody, V domains shown)
VH: QVQLVQSGAEVKKPGASVKVSCKASGYTFTSYYMHWVRQAPGQGLEWMGIINPSGGSTSYAQKFQGRVTMTRDTSTSTVYMELSSLRSEDTAVYYCARVGWYRWGYMDYWGQGTLVTVSS
VL: B2 VL with T2A, Q40E, P46F, V80A, A95S
notes: human IgG1
As to B3, the binding result is “binds” in assay [13], “no binding (tested: 500 nM)” in [14] and “no binding (tested: 500 nM)” in assay [15].

As a reminder, the koff is the first-order rate constant of dissociation. A word on the kon: it is the second-order rate constant of association.

The record behind these values is patent US20220220224A1 (Hoffmann-La Roche, published 2022).
